Molecular target: Human ASK1 catalytic (kinase) domain, T813A mutant (human) (UniProt Q99683)
Experiment: AUC; sedimentation velocity; 13 μM protein in 10 mM HEPES pH 7.4, 120 mM NaCl, 0.25% glycerol, 4°C, 40,000 rpm; c(s) and c(M) distributions (SEDFIT)

“Human ASK1 catalytic (kinase) domain, T813A mutant (from UniProt Q99683 659-951) (domain or fragment)” showed a stoichiometry N of 2.

From publication PMC2100151
